According to paper PMC2562391:

How the values were obtained:
Assay in all cases: FRET or BRET; two-photon FLIM-FRET in living HeLa cells co-transfected with 0.5 μg of each plasmid, 24 h post transfection; eGFP fusion as donor, mCherry or mCherry fusion as acceptor; E from the donor lifetime with and without acceptor; read at the nuclear envelope, in the cytoplasm, in the nucleus and over the whole cell
[1] = target: R90K Vpr-mCherry (HIV-1 (strain LAI))
[2] = target: Vpr-mCherry (HIV-1 (strain LAI))
[3] = target: mCherry-Vpr (HIV-1 (strain LAI))
[4] = target: W54G Vpr-mCherry (HIV-1 (strain LAI))
[5] = target: Q3R Vpr-mCherry (HIV-1 (strain LAI))
[6] = target: R77Q Vpr-mCherry (HIV-1 (strain LAI))
[7] = target: I60A Vpr-mCherry (HIV-1 (strain LAI))

Substance: R90K Vpr-eGFP (natural protein)
- FRET efficiency E (whole cell) [1]: 18%

Substance: eGFP-Vpr (natural protein)
- FRET efficiency E (cytoplasm) [2]: 9%
- FRET efficiency E (nuclear envelope) [2]: 13%
- FRET efficiency E (nucleus) [2]: 6%
- FRET efficiency E (whole cell) [2]: 9%
- FRET efficiency E (cytoplasm) [3]: 7%
- FRET efficiency E (nuclear envelope) [3]: 13%
- FRET efficiency E (nucleus) [3]: 6%
- FRET efficiency E (whole cell) [3]: 8%

Substance: Vpr-eGFP (natural protein)
- FRET efficiency E (cytoplasm) [2]: 23%
- FRET efficiency E (nuclear envelope) [2]: 27%
- FRET efficiency E (nucleus) [2]: 19%
- FRET efficiency E (whole cell) [2]: 23%
- FRET efficiency E (cytoplasm) [3]: 14%
- FRET efficiency E (nuclear envelope) [3]: 17%
- FRET efficiency E (nucleus) [3]: 13%
- FRET efficiency E (whole cell) [3]: 15%

Substance: W54G Vpr-eGFP (natural protein)
- FRET efficiency E (whole cell) [4]: 16%

Substance: Q3R Vpr-eGFP (natural protein)
- FRET efficiency E (whole cell) [5]: 19%

Substance: R77Q Vpr-eGFP (natural protein)
- FRET efficiency E (whole cell) [6]: 22%

Substance: I60A-Vpr-eGFP (natural protein)
- FRET efficiency E (nucleus) [7]: 7%
- FRET efficiency E (whole cell) [7]: 6%
